Experimental data reported in PMC6303335.

Biological target: VACV B18
Experiment: SPR

human IFNα-2b
koff: 0.000225 s⁻¹
